Assay results as given in the supplement of paper PMC7125110.
± gives the standard error. For part of these data: This sample holds only a part of the variants without activity.

B1: glmS ribozyme (parent)
chain: AUAAAAGCGCCAGAACUACAGAAAUGUAGUUGACGAGGAGGAGGUUUAUCGAAUUUUCGGCGGAUGCCUCCAAA

How the values were obtained:
Conditions in all cases: with glucosamine-6-phosphate
[1] = variants of: B1; assay: kcat; higher = faster cleavage; RNA array
Summary of the method: (§1)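 Ribozyme variants carrying barcodes were transcribed in situ on sequenced MiSeq chips by E. coli RNA polymerase and tracked at 37 °C with a hybridised Cy3 probe. They were exposed to 40 μM to 10 mM glucosamine-6-phosphate in HEPES/KCl/Mg(OAc)2 buffer. kobs came from exponential decay fits of normalised per-tile medians, and kcat and KM from weighted Michaelis–Menten fits.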

[2] = variants of: B1; assay: self-cleavage kobs at 160 uM GlcN6P; higher = faster cleavage; RNA array
Summary of the method: as §1

[3] = variants of: B1; assay: self-cleavage kobs at 2500 uM GlcN6P; higher = faster cleavage; RNA array
Summary of the method: as §1

[4] = variants of: B1; assay: KM; higher = weaker cofactor use; RNA array
Summary of the method: as §1

[5] = variants of: B1; assay: self-cleavage kobs at 640 uM GlcN6P; higher = faster cleavage; RNA array
Summary of the method: as §1

[6] = variants of: B1; assay: self-cleavage kobs at 10000 uM GlcN6P; higher = faster cleavage; RNA array
Summary of the method: as §1

[7] = variants of: B1; assay: self-cleavage kobs at 40 uM GlcN6P; higher = faster cleavage; RNA array
Summary of the method: as §1

Row | Variant | kcat [1] | self-cleavage kobs at 160 uM GlcN6P [2] | self-cleavage kobs at 2500 uM GlcN6P [3] | KM [4] | self-cleavage kobs at 640 uM GlcN6P [5] | self-cleavage kobs at 10000 uM GlcN6P [6] | self-cleavage kobs at 40 uM GlcN6P [7]
1 | C50U U69C | 2.88e-05 ± 9.3e-06 s⁻¹ | 4.48e-05 ± 1.5e-05 s⁻¹ | 4.75e-05 ± 1.5e-05 s⁻¹ | – | – | – | –
2 | A36U G66A | < 1e-05 s⁻¹ | < 1e-05 s⁻¹ | – | – | – | – | –
3 | G43C C67A | 0.000634 ± 8.3e-05 s⁻¹ | 4.22e-05 ± 1.1e-05 s⁻¹ | 0.000479 ± 5.7e-05 s⁻¹ | 1520 ± 410 µM | 0.000205 ± 2e-05 s⁻¹ | 0.00052 ± 4.3e-05 s⁻¹ | –
4 | C8U C10A A15U G38A C50U | < 1e-05 s⁻¹ | – | – | – | – | – | –
5 | U31G A64G | 0.0127 ± 0.0021 s⁻¹ | 0.000974 ± 0.00016 s⁻¹ | 0.00704 ± 0.0013 s⁻¹ | 1620 ± 370 µM | 0.00368 ± 0.00071 s⁻¹ | 0.0116 ± 0.0017 s⁻¹ | 0.000372 ± 5.2e-05 s⁻¹
6 | U55G C58U | 0.00011 ± 7.5e-06 s⁻¹ | – | 2.7e-05 ± 8.5e-06 s⁻¹ | 7880 ± 1100 µM | – | 6.17e-05 ± 7.4e-06 s⁻¹ | –
7 | U57G C70A | 4.31e-05 ± 1.5e-05 s⁻¹ | 3.33e-05 ± 1.3e-05 s⁻¹ | 6.82e-05 ± 1.9e-05 s⁻¹ | – | 4.1e-05 ± 1.7e-05 s⁻¹ | – | –
8 | G40C C67U | 0.000108 ± 1.3e-05 s⁻¹ | – | 7.55e-05 ± 1.5e-05 s⁻¹ | – | – | 8.8e-05 ± 7e-06 s⁻¹ | –
9 | G51A C71U | < 1e-05 s⁻¹ | – | – | – | – | – | < 1e-05 s⁻¹
10 | C16U A42U A64G | 0.000175 ± 4.3e-05 s⁻¹ | – | 7.15e-05 ± 1.6e-05 s⁻¹ | – | – | 0.000122 ± 2.6e-05 s⁻¹ | –
11 | A14U C67U | 0.00362 ± 0.00099 s⁻¹ | 0.000181 ± 2e-05 s⁻¹ | 0.00164 ± 0.00034 s⁻¹ | 2860 ± 930 µM | 0.000591 ± 7.1e-05 s⁻¹ | 0.0031 ± 0.00053 s⁻¹ | 6.23e-05 ± 7e-06 s⁻¹
12 | C10U U69C | 2.21e-05 ± 5.7e-06 s⁻¹ | – | – | – | – | – | –
13 | G37A U55C | 0.000802 ± 5.9e-05 s⁻¹ | 5.1e-05 ± 1.1e-05 s⁻¹ | 0.000404 ± 5.6e-05 s⁻¹ | 2180 ± 260 µM | 0.000189 ± 2e-05 s⁻¹ | 0.000676 ± 8.7e-05 s⁻¹ | –
14 | G37A U55G | 0.0025 ± 0.0004 s⁻¹ | 0.000204 ± 6.7e-05 s⁻¹ | 0.00122 ± 0.0002 s⁻¹ | 2980 ± 830 µM | 0.000401 ± 9.1e-05 s⁻¹ | 0.00188 ± 0.00028 s⁻¹ | 2.68e-05 ± 1.3e-05 s⁻¹
15 | U54C G59U | 4.57e-05 ± 2.2e-05 s⁻¹ | – | – | – | – | 2.45e-05 ± 1.2e-05 s⁻¹ | –
16 | U55C C71U | 0.00258 ± 5.1e-05 s⁻¹ | 0.000225 ± 3.7e-05 s⁻¹ | 0.00157 ± 0.00021 s⁻¹ | 1620 ± 49 µM | 0.000749 ± 0.00015 s⁻¹ | 0.00222 ± 0.00029 s⁻¹ | 6.36e-05 ± 1e-05 s⁻¹
17 | U57C C71G | 1.18e-05 ± 1.2e-06 s⁻¹ | – | – | – | – | – | < 1e-05 s⁻¹
18 | A15U U30A | 0.0245 ± 0.006 s⁻¹ | – | – | 377 ± 130 µM | 0.0102 ± 0.0044 s⁻¹ | 0.0272 ± 0.0062 s⁻¹ | 0.00246 ± 0.0004 s⁻¹
